Source: publication PMC9482650, “Quantitative fragmentomics allow affinity mapping of interactomes” (Nature Communications, 2022)

Columns and labels:
Assay in all cases: holdup assay
Details in all cases: plain residues with an end cap or a label only (N-terminal biotin on a linker: (peg)3)
CNKSR1, Q969H4 = target: T1, CNKSR1, Q969H4
T1 sequence (Q969H4 191-295, limits assumed, looked up): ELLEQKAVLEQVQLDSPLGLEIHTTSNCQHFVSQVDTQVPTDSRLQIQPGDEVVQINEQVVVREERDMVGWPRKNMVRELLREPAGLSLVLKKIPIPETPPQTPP

DLG2_1, Q15700 = target: DLG2_1, Q15700
DLG5_2, Q8TDM6 = target: DLG5_2, Q8TDM6
DLG5_2, Q8TDM6, sequence (Q8TDM6 714-800): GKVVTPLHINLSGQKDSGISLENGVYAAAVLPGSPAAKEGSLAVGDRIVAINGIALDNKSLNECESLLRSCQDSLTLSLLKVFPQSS

Inadl_7, Q8NI35 = target: Inadl_7, Q8NI35
Inadl_7, Q8NI35, sequence (Q8NI35 1219-1332): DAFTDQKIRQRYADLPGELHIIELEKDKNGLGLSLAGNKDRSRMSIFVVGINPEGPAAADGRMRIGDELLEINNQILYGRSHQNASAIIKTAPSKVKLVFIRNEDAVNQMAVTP

LMO7, Q8WWI1 = target: LMO7, Q8WWI1
LMO7, Q8WWI1, sequence (Q8WWI1 1037-1138): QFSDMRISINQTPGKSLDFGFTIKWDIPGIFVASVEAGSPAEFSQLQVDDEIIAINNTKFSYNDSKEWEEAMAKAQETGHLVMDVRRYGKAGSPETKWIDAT

MAGI1_6, Q96QZ7 = target: MAGI1_6, Q96QZ7
MAGI1_6, Q96QZ7, sequence (Q96QZ7 1146-1238): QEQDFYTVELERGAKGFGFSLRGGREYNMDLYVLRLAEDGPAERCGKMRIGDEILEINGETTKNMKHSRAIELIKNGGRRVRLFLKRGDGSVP

MAGI2_1, Q86UL8 = target: T2, MAGI2_1, Q86UL8
T2 sequence (Q86UL8 12-111, limits assumed, looked up): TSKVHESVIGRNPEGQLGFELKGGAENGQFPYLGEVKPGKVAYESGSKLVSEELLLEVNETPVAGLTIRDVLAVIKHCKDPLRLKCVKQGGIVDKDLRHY

MAGI3_3, Q5TCQ9 = target: MAGI3_3, Q5TCQ9
MAGI3_3, Q5TCQ9, sequence (Q5TCQ9 572-655): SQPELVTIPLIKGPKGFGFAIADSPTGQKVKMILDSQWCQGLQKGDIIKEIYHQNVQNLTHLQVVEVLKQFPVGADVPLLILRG

MAGI3_5, Q5TCQ9 = target: MAGI3_5, Q5TCQ9
MAGI3_5, Q5TCQ9, sequence (Q5TCQ9 847-941): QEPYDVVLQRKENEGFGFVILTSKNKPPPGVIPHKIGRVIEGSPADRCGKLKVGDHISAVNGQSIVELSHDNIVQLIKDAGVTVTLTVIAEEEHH

MAST3, O60307 = target: MAST3, O60307
MAST3, O60307, sequence (O60307 945-1048): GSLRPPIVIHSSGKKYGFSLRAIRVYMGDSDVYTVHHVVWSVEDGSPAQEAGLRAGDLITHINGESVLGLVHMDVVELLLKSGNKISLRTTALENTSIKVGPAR

MPDZ_13, O75970 = target: T3, MPDZ_13, O75970
T3 sequence (O75970 1982-2070, limits assumed, looked up): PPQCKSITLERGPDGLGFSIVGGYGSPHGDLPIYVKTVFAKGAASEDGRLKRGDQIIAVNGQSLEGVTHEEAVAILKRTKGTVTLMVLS

MPP5, Q8N3R9 = target: T4, MPP5, Q8N3R9
T4 sequence (Q8N3R9 251-346, limits assumed, looked up): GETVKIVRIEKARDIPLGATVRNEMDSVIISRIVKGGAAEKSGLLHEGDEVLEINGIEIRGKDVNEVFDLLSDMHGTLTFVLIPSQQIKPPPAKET

NHERF4_3, Q86UT5 = target: NHERF4_3, Q86UT5
NHERF4_3, Q86UT5, sequence (Q86UT5 325-412): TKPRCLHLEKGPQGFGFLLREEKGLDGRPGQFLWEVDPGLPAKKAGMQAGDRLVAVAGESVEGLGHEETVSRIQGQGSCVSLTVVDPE

PARD3_1, Q8TEW0 = target: PARD3_1, Q8TEW0
PARD3_1, Q8TEW0, sequence (Q8TEW0 264-372): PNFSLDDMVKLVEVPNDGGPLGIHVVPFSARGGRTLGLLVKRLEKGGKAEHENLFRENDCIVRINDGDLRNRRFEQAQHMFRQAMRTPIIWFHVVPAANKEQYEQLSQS

PARD6B, Q9BYG5 = target: T5, PARD6B, Q9BYG5
T5 sequence (Q9BYG5 152-260, limits assumed, looked up): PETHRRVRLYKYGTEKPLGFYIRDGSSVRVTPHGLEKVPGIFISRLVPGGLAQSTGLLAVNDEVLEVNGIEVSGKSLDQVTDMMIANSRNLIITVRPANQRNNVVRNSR

PDZD11, Q5EBL8 = target: T6, PDZD11, Q5EBL8
T6 sequence (Q5EBL8 42-139, limits assumed, looked up): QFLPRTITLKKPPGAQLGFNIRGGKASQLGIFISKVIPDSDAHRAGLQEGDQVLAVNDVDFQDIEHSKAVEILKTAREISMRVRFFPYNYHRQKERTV

PDZD2_4, O15018 = target: T7, PDZD2_4, O15018
T7 sequence (O15018 723-823, limits assumed, looked up): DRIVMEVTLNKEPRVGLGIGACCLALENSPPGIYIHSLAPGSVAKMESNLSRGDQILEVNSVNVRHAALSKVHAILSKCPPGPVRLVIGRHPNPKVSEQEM

PDZD4, Q76G19 = target: T8, PDZD4, Q76G19
T8 sequence (Q76G19 125-224, limits assumed, looked up): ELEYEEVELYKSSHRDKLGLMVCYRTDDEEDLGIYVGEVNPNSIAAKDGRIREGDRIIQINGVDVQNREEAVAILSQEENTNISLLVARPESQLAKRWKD

PDZRN3_2, Q9UPQ7 = target: T9, PDZRN3_2, Q9UPQ7
T9 sequence (Q9UPQ7 414-513, limits assumed, looked up): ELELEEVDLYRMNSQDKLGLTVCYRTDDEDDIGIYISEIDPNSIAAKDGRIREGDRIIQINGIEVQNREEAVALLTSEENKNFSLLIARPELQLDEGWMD

PDZRN4_2, Q6ZMN7 = target: PDZRN4_2, Q6ZMN7
PDZRN4_2, Q6ZMN7, sequence (Q6ZMN7 389-498): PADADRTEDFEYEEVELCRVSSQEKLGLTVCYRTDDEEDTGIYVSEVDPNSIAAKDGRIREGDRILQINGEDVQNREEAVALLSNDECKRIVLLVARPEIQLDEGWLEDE

PREX1_1, Q8TCU6 = target: PREX1_1, Q8TCU6
PREX1_1, Q8TCU6, sequence (Q8TCU6 608-718): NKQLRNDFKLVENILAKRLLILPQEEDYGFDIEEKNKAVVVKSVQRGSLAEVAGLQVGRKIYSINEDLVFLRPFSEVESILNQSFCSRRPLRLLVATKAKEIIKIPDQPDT

PREX2_2, Q70Z35 = target: T10, PREX2_2, Q70Z35
T10 sequence (Q70Z35 672-764, limits assumed, looked up): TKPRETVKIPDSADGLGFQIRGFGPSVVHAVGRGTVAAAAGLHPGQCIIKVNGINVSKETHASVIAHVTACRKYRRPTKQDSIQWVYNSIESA

RIMS2, Q9UQ26 = target: RIMS2, Q9UQ26
RIMS2, Q9UQ26, sequence (Q9UQ26 637-758): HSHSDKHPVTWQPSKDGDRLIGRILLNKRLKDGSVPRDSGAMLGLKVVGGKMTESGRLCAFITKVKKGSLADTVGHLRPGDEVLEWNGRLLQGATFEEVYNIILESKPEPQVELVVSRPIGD

SDCBP_1, O00560 = target: SDCBP_1, O00560
SDCBP_1, O00560, sequence (O00560 111-198): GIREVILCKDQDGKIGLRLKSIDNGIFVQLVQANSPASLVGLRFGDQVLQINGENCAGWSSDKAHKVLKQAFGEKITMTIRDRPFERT

SHROOM2, Q13796 = target: T11, SHROOM2, Q13796
T11 sequence (Q13796 21-118, limits assumed, looked up): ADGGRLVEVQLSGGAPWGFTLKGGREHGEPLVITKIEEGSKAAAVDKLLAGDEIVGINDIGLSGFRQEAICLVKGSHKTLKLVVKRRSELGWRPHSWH

TJP3_1, O95049 = target: T12, TJP3_1, O95049
T12 sequence (O95049 6-103, limits assumed, looked up): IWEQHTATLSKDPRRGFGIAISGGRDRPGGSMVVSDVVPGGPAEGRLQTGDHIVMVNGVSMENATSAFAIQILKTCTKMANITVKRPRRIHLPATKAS

With NLNSSEGVPDLLV [SARS-CoV-E, P59637] the pKd (CNKSR1, Q969H4) was “below the threshold”, the pKd (DLG2_1, Q15700) was “below the threshold” and the pKd (DLG5_2, Q8TDM6) was “below the threshold”. For the same binder, the pKd (Inadl_7, Q8NI35) was “below the threshold”, the pKd (LMO7, Q8WWI1) was “below the threshold” and the pKd (MAGI1_6, Q96QZ7) was “below the threshold”. The pKd (MAGI2_1, Q86UL8) was “below the threshold”, the pKd (MAGI3_3, Q5TCQ9) was 3.85 and the pKd (MAGI3_5, Q5TCQ9) was “below the threshold”. For the same binder, the pKd (MAST3, O60307) was “below the threshold”, the pKd (MPDZ_13, O75970) was “below the threshold” and the pKd (MPP5, Q8N3R9) was “below the threshold”. For the same binder, the pKd (NHERF4_3, Q86UT5) was “below the threshold”, the pKd (PARD3_1, Q8TEW0) was 3.79 and the pKd (PARD6B, Q9BYG5) was “below the threshold”. The pKd (PDZD11, Q5EBL8) was “below the threshold”, the pKd (PDZD2_4, O15018) was “below the threshold” and the pKd (PDZD4, Q76G19) was “below the threshold”. The pKd (PDZRN3_2, Q9UPQ7) was “below the threshold”, the pKd (PDZRN4_2, Q6ZMN7) was 4.05 and the pKd (PREX1_1, Q8TCU6) was “below the threshold”. The pKd (PREX2_2, Q70Z35) was “below the threshold”, the pKd (RIMS2, Q9UQ26) was “below the threshold” and the pKd (SDCBP_1, O00560) was “below the threshold”. For the same binder, the pKd (SHROOM2, Q13796) was “below the threshold” and the pKd (TJP3_1, O95049) was “below the threshold”.
